# Data from patent US20240100134.
# Experiments:
# [1] = tested on: recombinant human plasminogen (not fused to Fc, wild-type)
# [2] = tested on: recombinant plasminogen-linker-Fc fusion (human plasminogen, QA linker GQAGQAS, Fc)
# Chain of recombinant plasminogen-linker-Fc fusion (human plasminogen, QA linker GQAGQAS, Fc) (chain, as listed by the source): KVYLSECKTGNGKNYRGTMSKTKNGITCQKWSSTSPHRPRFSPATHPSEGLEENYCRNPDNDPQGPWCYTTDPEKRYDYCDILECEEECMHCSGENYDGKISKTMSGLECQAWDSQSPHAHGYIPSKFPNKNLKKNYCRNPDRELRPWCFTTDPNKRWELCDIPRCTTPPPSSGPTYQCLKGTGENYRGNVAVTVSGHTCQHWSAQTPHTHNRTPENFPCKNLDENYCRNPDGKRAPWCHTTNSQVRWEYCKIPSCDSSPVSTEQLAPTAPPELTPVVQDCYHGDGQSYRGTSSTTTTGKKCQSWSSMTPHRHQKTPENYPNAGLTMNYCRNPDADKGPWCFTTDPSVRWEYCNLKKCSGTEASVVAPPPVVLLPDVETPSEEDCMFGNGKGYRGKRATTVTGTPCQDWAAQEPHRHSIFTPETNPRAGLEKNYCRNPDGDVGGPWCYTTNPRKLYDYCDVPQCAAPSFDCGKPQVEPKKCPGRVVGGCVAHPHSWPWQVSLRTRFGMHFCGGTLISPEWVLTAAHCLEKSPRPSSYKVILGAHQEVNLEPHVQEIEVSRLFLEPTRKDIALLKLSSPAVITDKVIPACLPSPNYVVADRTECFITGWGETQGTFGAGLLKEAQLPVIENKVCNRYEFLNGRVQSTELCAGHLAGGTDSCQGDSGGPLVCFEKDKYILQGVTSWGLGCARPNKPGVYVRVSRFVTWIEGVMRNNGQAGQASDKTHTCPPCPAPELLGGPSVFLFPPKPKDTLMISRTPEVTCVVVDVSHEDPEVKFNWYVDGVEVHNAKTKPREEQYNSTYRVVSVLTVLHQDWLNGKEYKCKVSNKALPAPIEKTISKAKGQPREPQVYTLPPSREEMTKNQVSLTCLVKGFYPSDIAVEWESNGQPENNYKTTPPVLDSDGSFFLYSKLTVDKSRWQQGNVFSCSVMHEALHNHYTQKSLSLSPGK
# Chain of recombinant human plasminogen (not fused to Fc, wild-type) (chain, as listed by the source): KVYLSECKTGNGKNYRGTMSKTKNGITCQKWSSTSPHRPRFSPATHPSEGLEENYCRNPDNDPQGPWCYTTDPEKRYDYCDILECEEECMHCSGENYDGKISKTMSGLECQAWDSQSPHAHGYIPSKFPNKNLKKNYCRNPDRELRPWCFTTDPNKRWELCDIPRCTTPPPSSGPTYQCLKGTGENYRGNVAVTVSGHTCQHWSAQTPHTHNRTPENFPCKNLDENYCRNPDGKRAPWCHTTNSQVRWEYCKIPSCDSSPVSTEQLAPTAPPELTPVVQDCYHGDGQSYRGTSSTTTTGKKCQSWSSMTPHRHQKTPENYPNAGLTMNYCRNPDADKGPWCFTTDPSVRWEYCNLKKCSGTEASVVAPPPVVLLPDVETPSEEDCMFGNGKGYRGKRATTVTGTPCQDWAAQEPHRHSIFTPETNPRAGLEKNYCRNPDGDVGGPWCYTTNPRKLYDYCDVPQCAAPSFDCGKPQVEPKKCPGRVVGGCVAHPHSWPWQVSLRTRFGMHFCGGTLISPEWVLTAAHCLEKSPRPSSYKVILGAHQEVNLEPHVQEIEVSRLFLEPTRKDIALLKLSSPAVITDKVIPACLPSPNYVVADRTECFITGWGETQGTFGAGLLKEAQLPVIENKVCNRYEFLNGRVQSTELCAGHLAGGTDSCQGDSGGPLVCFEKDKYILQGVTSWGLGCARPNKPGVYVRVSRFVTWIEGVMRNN
substance,measurement,setting,value
urokinase-type plasminogen activator,"Michelis-Menten analysis of activation (KM and Vmax), 10 mM EACA",[1],the kinetics of rPlg and rPlg-Fc activation are similar (as indicated by the KM and Vmax)
same,activation measured by the hydrolysis of plasmin fluorogenic substrate H-Ala-Phe-Lys-AMC,[1],"In the presence of tPA or uPA, comparable hydrolytic activity for rPlg and rPlg-Fc is observed"
same,"Michelis-Menten analysis of activation (KM and Vmax), 10 mM EACA",[2],the kinetics of rPlg and rPlg-Fc activation are similar (as indicated by the KM and Vmax)
same,activation measured by the hydrolysis of plasmin fluorogenic substrate H-Ala-Phe-Lys-AMC,[2],"In the presence of tPA or uPA, comparable hydrolytic activity for rPlg and rPlg-Fc is observed"
